Reference: US6492106B1, “Mammalian proteins that bind to FKBP12 in a rapamycin-dependent fashion” (The Johns Hopkins University, priority 1994, dated 2002)
“Also recorded” adds a separate entry of the source.

Legend:
[1] = target: FKBP12 / RAFT1 (245 kDa) and RAFT2 (35 kDa) (Rattus norvegicus, UniProt P42346+Q62658); assay: Crosslinking assay: 32P-FKBP12 with heparin column eluate of rat brain cytosol
[2] = target: RAFT2 (Rapamycin And FKBP12 Target 2), 35 kDa protein; assay: DSS crosslinking in heparin column eluate with 1 uM rapamycin plus 1 uM FK506 (small-molecule competitor)
[3] = target: RAFT1 (Rapamycin And FKBP12 Target 1), 245 kDa protein (rat) (UniProt P42346); assay: as above

C=CC[C@@H]1/C=C(\C)C[C@H](C)C[C@H](OC)[C@H]2O[C@@](O)(C(=O)C(=O)N3CCCC[C@H]3C(=O)O[C@H](/C(C)=C/[C@@H]3CC[C@@H](O)[C@H](OC)C3)[C@H](C)[C@@H](O)CC1=O)[C@H](C)C[C@@H]2OC [FK506, reference compound]
reduction of the intensities of the crosslinked bands ([1]; equal concentrations (1 μM) of rapamycin and FK506): approximately 50%

32P-radiolabeled FKBP12 probe (recombinant rat FKBP12 with two consensus PKA sites added at the N-terminus, cleaved from GST with thrombin) (from UniProt Q62658 1-108)
reduction of crosslinked band intensity [2]: 50% | reduction of crosslinked band intensity [3]: 50%

B1: unlabeled FKBP12: immunophilin receptor protein for FK506 and rapamycin, used unlabeled in excess (1 μM) as competitor (protein)
chain: GVQVETISSGDGRTFPKRGQTCVVHYTGMLEDGKKFDSSRDRNKPFKFTLGKQEVIRGWEEGVAQMSVGQRAKLIISPDYAYGATGHPGIIPPHATLVFDVELLKLE
antagonism of rapamycin-induced crosslinking of 32P-FKBP12 to the target proteins ([1]; competitor at 1 μM, all rapamycin concentrations tested): prevent the rapamycin-dependent association; also recorded: completely suppressed the appearance of the crosslinked bands
